Source: patent US20230203461A1, “BETA-ETHERASES FOR LIGNIN DEPOLYMERISATION” (The University of York, priority 2020, published 2023)

Tests used:
β-etherase = assay: Phenol oxidase assay (substrate specificity) with β-etherase; format: biochemical, P. putredinis NO1; details: 1 mM substrate, 50 mM Tris pH 8.5, room temperature
Procedure: Specificity was investigated by incubating 1 mM of each substrate of interest with the enzyme in 100 µL Tris pH 8.5 buffer at room temperature. Activity was determined by monitoring the change in Ultraviolet-Visible absorbance spectra (220 - 750 nm) of aliquots using a NanoDrop 8000 Microvolume UV-Vis spectrophotometer (Thermo Scientific). Scans were performed at regular intervals over 2 h.

tyrosinase = details: literature statement; cited from earlier work
[1] = Release of products from sugarcane bagasse (HPLC); format: biochemical; details: 16 h, pH 8.5, 30° C.
[2] = Saccharification after β-etherase pretreatment, rice straw (HPAEC); format: biochemical; details: 16 h β-etherase pretreatment, then commercial cellulases
Procedure: (§1) For saccharification reactions, biomass pretreated with β-etherase was incubated with 1.2 µg/mL enzyme cocktail (4:1 Celluclast: novo 188 (Novozymes)) in 50 mM sodium acetate at pH 4.5 and incubated overnight at 37-40° C. with shaking. This was performed alongside a control reaction with buffer only. Solids were removed by centrifugation, and residual protein was precipitated with 80% ethanol. The supernatant, containing mono- and oligosaccharides, was dried with a centrifugal evaporator before samples were resuspended in ultra-pure water and filtered through a 0.2 µm polytetrafluoroethylene (PTFE) filter. Five replicates from each sample were investigated, and carbohydrate composition was analyzed by high-performance anion-exchange chromatography (HPAEC).
(§2) High-performance anion-exchange chromatography was used to analyze monosaccharide release after saccharification. Briefly, 5 µL of samples or standards were injected on a CarboPac PA20 3 × 150 mm analytical column via a CarboPac PA20 3×0 mm guard column using Chromeleon 6.8 Chromatography Data Systems software (Dionex). […] Carbohydrates were detected by ICS-3000 PAD system with an electrochemical gold electrode, identified by comparison with retention times of external standards (arabinose, fucose, galactose, glucose, glucuronic acid, mannose, rhamnose, and xylose) and quantified through the integration of these known standards.

[3] = Saccharification after β-etherase pretreatment, sugarcane bagasse (HPAEC); format: biochemical; details: 16 h β-etherase pretreatment, then commercial cellulases
Procedure: as §1
High-performance anion-exchange chromatography was used to analyze monosaccharide release after saccharification. Briefly, 5 µL of samples or standards were injected on a CarboPac PA20 3 × 150 mm analytical column via a CarboPac PA20 3×0 mm guard column using Chromeleon 6.8 Chromatography Data Systems software (Dionex). Sugars were separated at a flow rate of 0.4-0.5 mL min^-1 at a temperature of 25° C. as follows: after equilibration of the column with 100% H2O, samples were separated in a linear gradient of 100% H2O to 99%-1% of H2O-0.2 M NaOH for 5 min, then constant for 10 min, followed by a linear gradient to 47.5%-22.5%-30% of H2O-0.2 M NaOH-0.5 M NaOAc/0.1 M NaOH in 7 min and then kept constant for 15 min. After washing the column with 0.2 M NaOH for 8 min it was re-equilibrated with 100% H2O for 10 min before the injection of the next sample. Carbohydrates were detected by ICS-3000 PAD system with an electrochemical gold electrode, identified by comparison with retention times of external standards (arabinose, fucose, galactose, glucose, glucuronic acid, mannose, rhamnose, and xylose) and quantified through the integration of these known standards.

[4] = 2D HSQC NMR of enzyme lignins from treated wheat; details: HSQC volume-integrals, S + G + H = 100% basis; control nearly 12%
Procedure: Enzyme lignins, representing essentially all of the lignin in the sample, were prepared following ball-milling of the cell wall isolate as previously described.(75-77, 78)
2D NMR of enzyme lignins (EL) in 4:1 v/v DMSO-d6:pyridine-d5 were acquired on a Bruker Biospin (Billerica, MA) Avance 700 MHz spectrometer equipped with a 5-mm QCI ^1H/^31P/^13 C/^15 N QCI cryoprobe with inverse geometry (proton coils closest to the sample), as described previously.(76,77) Volume-integration of contours in HSQC plots used TopSpin 4.07 (Mac version) software, and no correction factors were used. The data represent volume-integrals only, and data are presented on an S + G + H = 100% basis (FIG. 17); pCA, and tricin T units are always terminal and are, therefore, likely overestimated.(77) Data assignments here were made by comparison with published data from other samples from our lab, including in the various tricin-related papers.(71-74, 79, 80)

[5] = Release of tricin and lignin units from wheat straw (HPLC); format: biochemical; details: 16 h, pH 8.5, 30° C.
Procedure: Wheat straw was ground to <1 mm using a cyclone mill (Retsch) and washed several times with 50 mM Tris pH 8 to remove residual surface sugars. […] Reactions were incubated overnight at 30° C. with shaking. Control reactions were performed using wheat straw incubated with boiled β-etherase or with buffer only. Tricin was extracted based upon Karambelkar.^70 Briefly, 1 mL of ethyl acetate was added to 100 µL of the reaction supernatant. This was homogenized before being centrifuged for 5 min at 13,000 rpm. The ethyl acetate layer was transferred into new tubes and evaporated using a centrifugal evaporator at 55° C. before being resuspended in 100 µL 50% H2O, 50% acetonitrile. This was analyzed with a Waters 2996 photodiode array detector Separations Module HPLC system, column used was C18-5 µM preparative column (4.6 × 250 mm, Waters, X-Bridge, Made in Ireland). The mobile phase was 0.1% acetic acid in water (A), and methanol (B) and a linear gradient was used; 95% A (5 min), 70% A (25 min), 0% A (30 min), 95% A (5 min), the flow rate was 1.0 mL/min. After identification through comparisons with authentic standards, based on retention time and UV spectrum, peaks were manually collected and the mass confirmed with mass spectroscopy.

[6] = Fluorescence assay for β-etherase (4MU release from GGβ4MU); format: biochemical
Procedure: Enzyme activity was measured in 1 mL reaction containing 10 µL 4MU/GGβ4MU (synthetic fluorescent substrate 10 mM) and appropriate concentration of pure protein in 50 mM Tris-HCI, 100 mM NaCl, pH 8.5, 5 mM CuSO4. The reaction was incubated at 30° C. for 1 h. Formation of 4-methylumbelliferone (4MU) was monitored using an RF-1500 fluorometric analyzer. After 0 h and 1 h of incubation 100 µL of the reaction mixture was taken and added to 50 µL of 100 mM glycine-NaOH buffer (pH 10.0). One unit of the enzyme was defined as the amount that released 1 nmol of 4 MU/h from the substrate. Five replicate were taken for each sample, and control reactions of boiled enzyme and wheat straw treated with buffer only were also performed.
The effect of pH and temperature on enzyme activity was investigated by varying the pH of the reaction mixtures using 50 mM Tris-HCI buffer from pH 7.0 to 9.5, 50 mM glycine-NaOH buffer at pH range 9.0 to 10.5 and 50 mM Na2HPO4-NaOH buffer at pH range 10.5 to 12. The optimum temperature of enzyme activity was determined at various temperatures ranging from 20° C. to 70° C. Assays were performed as described in the previous section.

[7] = Saccharification after β-etherase pretreatment, wheat straw (HPAEC); format: biochemical; details: 16 h β-etherase pretreatment, then commercial cellulases
Procedure: as §1, §2

[8] = Release of products from rice straw (HPLC); format: biochemical; details: 16 h, pH 8.5, 30° C.
[9] = purification step: Culture filrate
[10] = purification step: Q (anion-exchange)
[11] = purification step: S.E (size-exclusion)

O=C(O)c1ccc(O)cc1 [4-Hydroxybenzoic acid]
activity of the β-etherase against the substrate (β-etherase): showed activity
tyrosinase inhibition (tyrosinase): known to be tyrosinase inhibitors

N[C@@H](Cc1ccc(O)c(O)c1)C(=O)O [L-Dopa, 3,4-dihydroxy-L-phenylalanine]
activity of the β-etherase against the substrate (β-etherase): did not display activity

N[C@@H](Cc1ccc(O)cc1)C(=O)O [L-tyrosine]
activity of the β-etherase against the substrate (β-etherase): did not display activity

O=c1c(O)c(-c2ccc(O)c(O)c2)oc2cc(O)cc(O)c12 [Quercetin]
activity of the β-etherase against the substrate (β-etherase): showed activity
tyrosinase inhibition (tyrosinase): known to be tyrosinase inhibitors

COc1cc(-c2cc(=O)c3c(O)cc(O)cc3o2)cc(OC)c1O [Tricin, 5,7-dihydroxy-2-(4-hydroxy-3,5-dimethoxyphenyl)-4H-chromen-4-one]
type of tyrosinase inhibition (tyrosinase): binds non-competitively

COc1cc(C(=O)O)ccc1O [Vanillic acid]
activity of the β-etherase against the substrate (β-etherase): showed activity
tyrosinase inhibition (tyrosinase): known to be tyrosinase inhibitors

O=C(O)/C=C/c1ccc(O)cc1 [p-coumaric acid]
type of tyrosinase inhibition (tyrosinase): mixed-type inhibition effect

B1: β-etherase: copper-containing extracellular β-etherase of Parascedosporium putredinis NO1 (c2092), independent of NAD+ and glutathione, expressed recombinantly in E. coli (protein, listed as Parascedosporium putredinis)
chain: MPSAKRLLGLLLAATAAVGVAAQEPALTEDDFSIPEIEGGDALAQLAQLAADSSQETALRMAKRGLNSGCSPSQIKVRREWRTLTSAQRKQYIASVKCLQTKPSFFDPNIIPAAKSLFDDFVGVHVFQTGSIHLTATFLTWHRYFVYTYETKLREECGYTGPLPYWEWGLDVNNPNASPVFDGSDTSLSGNGAFFAHEGIQMVQPINGNILKLPPGNGGGCVTKGPFKDMKVHFGTIILPVYGQPILSGVENPIADNERCLKRDLNAGIAKRFTSFLNSTSVILKNNNIEMFQAHLQGDDRYVLNQLGVHGGGHYTIGGDPGGDPFISPGDPAFYLHHAQIDRIYWIWQMLDFKNRQGVHGTATLQNNPPSANVTVEDTIDLSPLAPPVKIKDLMNTVGGSPLCYIYL
p-coumaric acid release from sugarcane bagasse [1]: significantly enriched
tricin released from sugarcane bagasse compared to wheat straw [1]: smaller amount of tricin was released
improvement in saccharification [2]: no improvement in saccharification
increase in arabinose after saccharification vs untreated control [3]: 23 fold
increase in glucose after saccharification vs untreated control [3]: 2 fold
increase in xylose after saccharification vs untreated control [3]: 5 fold
relative tricin ether level in the lignin after treatment [4]: about 8.5%
p-coumaric acid, vanillin and p-hydroxybenzaldehyde in reaction supernatant of wheat straw [5]: not enriched
tricin in reaction supernatant of wheat straw vs buffer alone [5]: significantly higher concentration of tricin
temperature of maximum activity ([6]; GGβ4MU assay, 20° C. to 70° C. tested): 60 °C
pH of maximum activity ([6]; GGβ4MU assay, pH 7.0 to 12 tested): 10
Activity (mU) (nmol/mg/hr) [6, 9]: 7500 mU
Specific (U/mg) [6, 9]: 7.32 U/mg
Activity (mU) (nmol/mg/hr) [6, 10]: 2600 mU
Specific (U/mg) [6, 10]: 88 U/mg
Activity (mU) (nmol/mg/hr) [6, 11]: 1950 mU
Specific (U/mg) [6, 11]: 139 U/mg
β-etherase activity (fluorescence released after incubation with GGβ4MU) ([6]; recombinant purified protein from E. coli): confirmed
increase in glucose release after saccharification [7]: 1.2 fold
product release from rice straw [8]: little difference in product release
